{"source": "paper PMC8515945", "about": "(Microbiology Spectrum, 2021)", "binders": {"B1": {"name": "nCoV617 (full-length recombinant human IgG1) (antibody, V domains shown)", "VH": "QVQLVESGGGVVQPGRSLRLSCAASGFTFSSYAMHWVRQAPGKGLEWVALISYDGSNKYADSVKGRFTISRDNSKNTLYLQMNSLRAEDTAVYYCARGLGLRFLEWPISSYWGQGTLVTVSS", "VL": "not shown", "notes": "also called MAb nCoV617; NAb nCoV617"}}, "molecular_target": "SARS-CoV-2 spike protein receptor-binding domain (residues 319 to 533), wild type (SARS-CoV-2, UniProt P0DTC2)", "assay": "SPR", "conditions": "both partners purified"}
{"binder": "B1", "values": [{"measurement": "Kd", "result": 4.23, "unit": "nM"}]}
